{"source": "the supplement of paper PMC9112550", "about": "“Optimization of the antimicrobial peptide Bac7 by deep mutational scanning” (BMC Biology, 2022);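 also: peptides expressed intracellularly from a pBAD plasmid library in pooled LB shake-flask culture, induced with 0.3% L-arabinose, DNA abundance read by NGS, three biological replicates, DESeq2 with apeglm shrinkage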"}
{"system": "Escherichia coli TOP10", "test": "shrunken log2 fold change of peptide-encoding DNA abundance (4.5 h post-induction vs induction); higher = less antimicrobial activity (less host growth inhibition)", "conditions": "time post-induction: 4.5 h; library: site-saturation at positions 5, 18, 19, 20"}
{"sequence": "RRIRRRPPRLPRPRPRPLYLPRP", "shrunken log2 fold change": 0.926}
{"sequence": "RRIRYRPPRLPRPRPRPPVHPRP", "shrunken log2 fold change": -0.0526}
{"sequence": "RRIRTRPPRLPRPRPRPYVSPRP", "shrunken log2 fold change": -0.244}
{"sequence": "RRIRQRPPRLPRPRPRPCMQPRP", "shrunken log2 fold change": -0.238}
{"sequence": "RRIRSRPPRLPRPRPRPKHSPRP", "shrunken log2 fold change": -0.572}
{"sequence": "RRIRKRPPRLPRPRPRPTKEPRP", "shrunken log2 fold change": 1.6}
{"sequence": "RRIRCRPPRLPRPRPRPNHFPRP", "shrunken log2 fold change": -0.484}
{"sequence": "RRIRMRPPRLPRPRPRPHLGPRP", "shrunken log2 fold change": 0.086}
{"sequence": "RRIRPRPPRLPRPRPRPIYFPRP", "shrunken log2 fold change": -0.205}
{"sequence": "RRIRFRPPRLPRPRPRPAPNPRP", "shrunken log2 fold change": 0.408}
{"sequence": "RRIRWRPPRLPRPRPRPLSSPRP", "shrunken log2 fold change": -0.0482}
{"sequence": "RRIRMRPPRLPRPRPRPDTTPRP", "shrunken log2 fold change": 0.536}
{"sequence": "RRIRGRPPRLPRPRPRPHKVPRP", "shrunken log2 fold change": 0.184}
{"sequence": "RRIRTRPPRLPRPRPRPISMPRP", "shrunken log2 fold change": -0.262}
{"sequence": "RRIRYRPPRLPRPRPRPWPHPRP", "shrunken log2 fold change": 0.0143}
{"sequence": "RRIRWRPPRLPRPRPRPENYPRP", "shrunken log2 fold change": -0.122}
{"sequence": "RRIRYRPPRLPRPRPRPARVPRP", "shrunken log2 fold change": -0.0653}
{"sequence": "RRIRHRPPRLPRPRPRPSFEPRP", "shrunken log2 fold change": -0.358}
{"sequence": "RRIRERPPRLPRPRPRPEIAPRP", "shrunken log2 fold change": -0.0389}
{"sequence": "RRIRHRPPRLPRPRPRPATRPRP", "shrunken log2 fold change": 0.0209}
{"sequence": "RRIRYRPPRLPRPRPRPCCFPRP", "shrunken log2 fold change": -0.709}
{"sequence": "RRIRTRPPRLPRPRPRPEDYPRP", "shrunken log2 fold change": -0.00822}
{"sequence": "RRIRMRPPRLPRPRPRPYATPRP", "shrunken log2 fold change": -0.0602}
{"sequence": "RRIRGRPPRLPRPRPRPFPPPRP", "shrunken log2 fold change": 0.378}
{"sequence": "RRIRFRPPRLPRPRPRPLFWPRP", "shrunken log2 fold change": 0.201}
{"sequence": "RRIRSRPPRLPRPRPRPAIGPRP", "shrunken log2 fold change": -0.0608}
{"sequence": "RRIRDRPPRLPRPRPRPYRVPRP", "shrunken log2 fold change": -0.0135}
{"sequence": "RRIRCRPPRLPRPRPRPHSRPRP", "shrunken log2 fold change": 0.0572}
{"sequence": "RRIRERPPRLPRPRPRPSNLPRP", "shrunken log2 fold change": -0.302}
{"sequence": "RRIRFRPPRLPRPRPRPSKMPRP", "shrunken log2 fold change": -0.351}
{"sequence": "RRIRRRPPRLPRPRPRPDLQPRP", "shrunken log2 fold change": 0.0255}
{"sequence": "RRIRKRPPRLPRPRPRPWPTPRP", "shrunken log2 fold change": 0.103}
{"sequence": "RRIRTRPPRLPRPRPRPREMPRP", "shrunken log2 fold change": 0.101}
{"sequence": "RRIRARPPRLPRPRPRPRQTPRP", "shrunken log2 fold change": 0.535}
{"sequence": "RRIRKRPPRLPRPRPRPIAIPRP", "shrunken log2 fold change": -0.282}
{"sequence": "RRIRRRPPRLPRPRPRPHEWPRP", "shrunken log2 fold change": -0.00636}
{"sequence": "RRIRVRPPRLPRPRPRPMTQPRP", "shrunken log2 fold change": 0.181}
{"sequence": "RRIRPRPPRLPRPRPRPCYAPRP", "shrunken log2 fold change": -0.414}
{"sequence": "RRIRSRPPRLPRPRPRPPLVPRP", "shrunken log2 fold change": -0.0483}
{"sequence": "RRIRPRPPRLPRPRPRPPFIPRP", "shrunken log2 fold change": -0.0606}
{"sequence": "RRIRMRPPRLPRPRPRPTSFPRP", "shrunken log2 fold change": 0.347}
{"sequence": "RRIRSRPPRLPRPRPRPINRPRP", "shrunken log2 fold change": -0.225}
{"sequence": "RRIRERPPRLPRPRPRPVVNPRP", "shrunken log2 fold change": -0.257}
{"sequence": "RRIRERPPRLPRPRPRPKKMPRP", "shrunken log2 fold change": -0.478}
{"sequence": "RRIRNRPPRLPRPRPRPIHRPRP", "shrunken log2 fold change": 0.0891}
{"sequence": "RRIRVRPPRLPRPRPRPRQGPRP", "shrunken log2 fold change": 0.317}
{"sequence": "RRIRNRPPRLPRPRPRPYAAPRP", "shrunken log2 fold change": -0.4}
{"sequence": "RRIRMRPPRLPRPRPRPWRDPRP", "shrunken log2 fold change": 0.518}
{"sequence": "RRIRCRPPRLPRPRPRPIDPPRP", "shrunken log2 fold change": -0.18}
{"sequence": "RRIRGRPPRLPRPRPRPIDKPRP", "shrunken log2 fold change": 1.2}
{"sequence": "RRIRERPPRLPRPRPRPMEPPRP", "shrunken log2 fold change": 0.0704}
{"sequence": "RRIRARPPRLPRPRPRPDERPRP", "shrunken log2 fold change": 0.423}
{"sequence": "RRIRIRPPRLPRPRPRPRAWPRP", "shrunken log2 fold change": 0.187}
{"sequence": "RRIRWRPPRLPRPRPRPNQKPRP", "shrunken log2 fold change": -0.0347}
{"sequence": "RRIRKRPPRLPRPRPRPDFQPRP", "shrunken log2 fold change": 0.33}
{"sequence": "RRIRIRPPRLPRPRPRPVYRPRP", "shrunken log2 fold change": 0.00778}
{"sequence": "RRIRMRPPRLPRPRPRPLCQPRP", "shrunken log2 fold change": 0.0549}
{"sequence": "RRIRIRPPRLPRPRPRPKKYPRP", "shrunken log2 fold change": -0.546}
{"sequence": "RRIRERPPRLPRPRPRPTGVPRP", "shrunken log2 fold change": -0.129}
{"sequence": "RRIRMRPPRLPRPRPRPDRTPRP", "shrunken log2 fold change": 0.52}
{"sequence": "RRIRFRPPRLPRPRPRPFHAPRP", "shrunken log2 fold change": -0.393}
{"sequence": "RRIRARPPRLPRPRPRPPCWPRP", "shrunken log2 fold change": 0.967}
{"sequence": "RRIRIRPPRLPRPRPRPSENPRP", "shrunken log2 fold change": -0.356}
{"sequence": "RRIRPRPPRLPRPRPRPQMVPRP", "shrunken log2 fold change": -0.491}
{"sequence": "RRIRVRPPRLPRPRPRPIEIPRP", "shrunken log2 fold change": -0.00163}
{"sequence": "RRIRSRPPRLPRPRPRPPHSPRP", "shrunken log2 fold change": 0.113}
{"sequence": "RRIRYRPPRLPRPRPRPFMYPRP", "shrunken log2 fold change": -1.14}
{"sequence": "RRIRIRPPRLPRPRPRPTFFPRP", "shrunken log2 fold change": -0.292}
{"sequence": "RRIRKRPPRLPRPRPRPPSSPRP", "shrunken log2 fold change": 0.263}
{"sequence": "RRIRDRPPRLPRPRPRPPFPPRP", "shrunken log2 fold change": 0.206}
{"sequence": "RRIRNRPPRLPRPRPRPQHMPRP", "shrunken log2 fold change": -0.605}
{"sequence": "RRIRFRPPRLPRPRPRPTKHPRP", "shrunken log2 fold change": 0.101}
{"sequence": "RRIRIRPPRLPRPRPRPQGFPRP", "shrunken log2 fold change": -0.129}
{"sequence": "RRIRHRPPRLPRPRPRPGGQPRP", "shrunken log2 fold change": 0.0463}
{"sequence": "RRIRGRPPRLPRPRPRPCHVPRP", "shrunken log2 fold change": -0.172}
